Results reported in patent US11340215B2, “Screening method of anticancer agent focused on function of HP1 and evaluation system” (JAPANESE FOUNDATION FOR CANCER RESEARCH, priority 2016, dated 2022).
Numbering of substitutions follows the chain as printed. Blank lines part the entries; values can stand above or below the molecule they belong to.

Legend:
Aurora B [1] = molecular target: T1, Aurora B (Homo sapiens, UniProt Q96GD4); experiment: Kinase activity of fractions immunoprecipitated with anti-HP1α-pS92 antibody or INCENP antibody; type: biochemical; design: endogenous in cells; details: addition of inhibitor
Protocol: The cells in the mitotic phase were incubated in a solution, which was prepared by adding 1 U/μl OmniCleave Endonuclease (manufactured by Epicentre) in the above immunoprecipitation buffer, at 4° C. for 30 minutes. The solution was centrifuged at 4° C. and 15,000 rpm for 10 minutes and the supernatant was further centrifuged. The resultant supernatant was used for immunoprecipitation. Protein A-Sepharose (manufactured by Bio-Rad) having an antibody bound thereto, was allowed to react with cell extracts and subjected to immunoprecipitation. The sample obtained by immunoprecipitation was subjected to the immunoblotting using peroxidase-labeled Mouse TrueBlot ULTRA or Rabbit TrueBlot (manufactured by eBioscience) as a secondary antibody.
The kinase assay was carried out by adding a substrate in a kinase buffer (20 mM Tris-HCl, 50 mM MgCl2, 100 mM NaCl, 20 μM ATP, pH7.5) and 0.2 mCi/ml[γ^− ^32P]ATP. […] Phosphorylation was analyzed by Typhoon scanner (manufactured by GE Healthcare) and a liquid scintillation counter.
Next, we will describe that the binding of HP1 to CPC is necessary for activating Aurora B. Immunoprecipitation was carried out with anti-HP1α-pS92 antibody and INCENP antibody and proteins constituting CPC and subtypes of HP1 were analyzed by immunoblotting (FIG. 5H, left panel). […]
Target sequence in this assay (Q96GD4 whole entry): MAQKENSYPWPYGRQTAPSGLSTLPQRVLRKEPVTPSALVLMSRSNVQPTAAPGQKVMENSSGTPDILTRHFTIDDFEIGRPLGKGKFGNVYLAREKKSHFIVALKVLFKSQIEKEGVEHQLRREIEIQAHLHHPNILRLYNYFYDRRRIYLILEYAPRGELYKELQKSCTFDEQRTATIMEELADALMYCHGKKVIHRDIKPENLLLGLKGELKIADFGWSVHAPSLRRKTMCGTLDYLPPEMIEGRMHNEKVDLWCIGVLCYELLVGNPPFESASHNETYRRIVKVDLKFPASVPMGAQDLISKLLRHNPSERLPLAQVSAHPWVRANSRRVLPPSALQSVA
Target sequence in this assay (Q9NQS7 whole entry partner): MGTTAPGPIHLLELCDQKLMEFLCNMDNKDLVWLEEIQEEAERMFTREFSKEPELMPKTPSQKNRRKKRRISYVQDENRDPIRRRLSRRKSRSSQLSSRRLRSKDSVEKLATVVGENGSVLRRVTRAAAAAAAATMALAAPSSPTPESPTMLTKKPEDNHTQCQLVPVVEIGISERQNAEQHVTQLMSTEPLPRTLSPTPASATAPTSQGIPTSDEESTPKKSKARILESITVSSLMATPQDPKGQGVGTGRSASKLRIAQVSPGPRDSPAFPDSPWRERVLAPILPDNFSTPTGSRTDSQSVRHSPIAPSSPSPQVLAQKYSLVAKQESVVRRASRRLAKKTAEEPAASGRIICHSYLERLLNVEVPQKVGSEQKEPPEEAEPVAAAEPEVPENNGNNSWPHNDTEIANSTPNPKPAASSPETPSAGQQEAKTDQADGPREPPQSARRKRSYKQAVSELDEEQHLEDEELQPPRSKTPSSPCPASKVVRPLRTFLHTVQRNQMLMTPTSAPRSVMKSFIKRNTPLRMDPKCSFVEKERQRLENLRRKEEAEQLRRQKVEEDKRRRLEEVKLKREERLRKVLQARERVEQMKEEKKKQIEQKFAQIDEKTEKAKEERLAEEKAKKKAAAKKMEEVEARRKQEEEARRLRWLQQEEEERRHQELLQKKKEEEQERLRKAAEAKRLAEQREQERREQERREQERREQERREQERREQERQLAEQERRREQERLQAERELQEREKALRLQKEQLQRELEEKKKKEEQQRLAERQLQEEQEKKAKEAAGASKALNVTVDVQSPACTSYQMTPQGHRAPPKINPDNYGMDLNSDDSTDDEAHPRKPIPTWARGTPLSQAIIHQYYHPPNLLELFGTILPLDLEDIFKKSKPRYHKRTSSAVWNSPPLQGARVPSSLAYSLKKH
Target sequence in this assay (O15392 whole entry partner): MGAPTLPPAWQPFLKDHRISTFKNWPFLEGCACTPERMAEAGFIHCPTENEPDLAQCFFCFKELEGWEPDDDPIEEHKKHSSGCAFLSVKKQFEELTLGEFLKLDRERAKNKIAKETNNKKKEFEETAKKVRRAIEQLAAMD
Target sequence in this assay (Q53HL2 whole entry partner): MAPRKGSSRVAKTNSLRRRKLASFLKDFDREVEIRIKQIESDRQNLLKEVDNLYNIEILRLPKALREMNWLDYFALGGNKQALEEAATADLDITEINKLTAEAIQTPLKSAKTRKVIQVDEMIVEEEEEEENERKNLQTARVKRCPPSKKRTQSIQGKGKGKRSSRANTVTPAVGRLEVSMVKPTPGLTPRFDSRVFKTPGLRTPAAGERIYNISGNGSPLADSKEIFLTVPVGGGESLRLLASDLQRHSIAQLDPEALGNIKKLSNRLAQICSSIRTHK

Aurora B [2] = molecular target: T1, Aurora B; experiment: Immunostaining of metaphase cells with anti-HP1α-pS92 antibody; type: cell-based; design: endogenous in cells; details: FIG. 5D
Protocol: (§1) Cells were cultured on a cover glass and immobilized with 4% paraformaldehyde in PHEM buffer solution (60 mM PIPES, 25 mM HEPES, 10 mM EGTA, 2 mM MgCl2, pH7.0) or PBS, at room temperature. Cells were treated with the above buffer solution containing 0.2 to 1.0% Triton X-100, and blocked with a 3% BSA-containing buffer. Images were obtained by AxiolmagerM1 miacroscope (manufactured by Zeiss) equipped with CoolSNAP HQ camera (manufactured by Photometrics) operated by MetaMorph software (manufactured by MDS Analytical Technologies). The intensity of fluorescence was analyzed by ImageJ software (National Institute of Health).
It was shown that the anti-HP1α-pS92 antibody sensitively detects phosphorylated HP1α even if it is used in immunostaining (FIGS. 5D, E). Cells of the interphase, cells of the metaphase, cells of the metaphase where the expression of HP1α was depleted by siRNA and cells of the metaphase where the activity of Aurora B was suppressed by ZM447439 were immunostained with an anti-HP1α-pS92 antibody (FIG. 5D). Only the metaphase cells used as the control were stained. In the interphase cells, cells where the expression of HP1α was depleted and cells where the activity of Aurora B was suppressed, phosphorylated HP1α was not detected.
Target sequence in this assay (Q96GD4 whole entry): as the sequence (Q96GD4 whole entry) above
Target sequence in this assay (Q9NQS7 whole entry partner): as the sequence (Q9NQS7 whole entry partner) above
Target sequence in this assay (O15392 whole entry partner): as the sequence (O15392 whole entry partner) above
Target sequence in this assay (Q53HL2 whole entry partner): as the sequence (Q53HL2 whole entry partner) above

Aurora B [3] = molecular target: T1, Aurora B; experiment: Phosphorylation of Aurora B substrates in HeLa cells, fluorescence microscopy with phospho-specific antibodies; type: cell-based; design: endogenous in cells; host or cells: HeLa
Protocol: as §1
Target sequence in this assay (Q96GD4 whole entry): as the sequence (Q96GD4 whole entry) above
Target sequence in this assay (Q9NQS7 whole entry partner): as the sequence (Q9NQS7 whole entry partner) above
Target sequence in this assay (O15392 whole entry partner): as the sequence (O15392 whole entry partner) above
Target sequence in this assay (Q53HL2 whole entry partner): as the sequence (Q53HL2 whole entry partner) above
Next, activation of Aurora B was analyzed based on degree of phosphorylation of a substrate. HeLa cells were transfected with siRNA of all subtypes of HP1 to inhibit expression of all HP1 subtypes. […] The cells were immobilized and then analyzed by a fluorescence microscope using an antibody recognizing phosphorylation of serine at position 10 of histone H3 (H3-pS10, 6G3, manufactured by Cell Signaling Technology) (FIG. 4B); an antibody recognizing phosphorylation of serine at position 44 of Hec1 (Hec1-pS44, Non Patent Literature 8); an Hec1 antibody (9G3.23, manufactured by Novus Biologicals) (FIG. 4C); and an antibody recognizing phosphorylation of serine at position 100 of Dsn1 (Dsn-pS100, Non Patent Literature 9) (FIG. 4D).

Aurora B [4] = molecular target: T1, Aurora B; experiment: In vitro kinase assay with recombinant INCENP, Aurora B and HP1; type: biochemical; details: for activation of Aurora B: recombinant proteins, 1 μM HP1
Protocol: The kinase assay was carried out by adding a substrate in a kinase buffer (20 mM Tris-HCl, 50 mM MgCl2, 100 mM NaCl, 20 μM ATP, pH7.5) and 0.2 mCi/ml[γ^− ^32P]ATP. As the substrate, GST-Hec1 (1-80) or recombinant histones H3 (manufactured by New England Biolas) was used. Twenty nM INCENP and 120 nM GST-Aurora B were reacted in the presence or absence of 1 μM HP1 at 30° C. for 20 minutes and the reaction was terminated by Laemmli sample buffer. Phosphorylation was analyzed by Typhoon scanner (manufactured by GE Healthcare) and a liquid scintillation counter.
Using recombinant proteins of INCENP, Aurora B and HP1α, in vitro kinase assay was carried out (FIG. 6C). […] Accordingly, it was shown that physical binding of HP1 to INCENP is required for activation of Aurora B, and that HP1 has an allosteric effect on Aurora B.
Then, enzyme kinetics analysis of Aurora B was carried out. […] Further, analysis of proteins binding to GST-Aurora B was carried out by the GST pull down assay. As a result, the amount of Hec1 binding to GST-Aurora B increased in the conditions where HP1 can bind to INCENP. […] Accordingly, binding of HP1α to INCENP is required for activating Aurora B.
Target sequence in this assay (Q96GD4 whole entry): as the sequence (Q96GD4 whole entry) above
Target sequence in this assay (Q9NQS7 whole entry partner): as the sequence (Q9NQS7 whole entry partner) above

HP1α = molecular target: T2, HP1α (Homo sapiens, UniProt P45973); experiment: Binding assay of INCENP (positions 121 to 270) and HP1α by isothermal titration calorimetry
T2 construct: His tag or GST tag
Protocol: Wild type HP1α and a region at positions 121 to 270 in INCENP (SEQ ID NO: 8, INCENP WT) were used in the binding assay. The region at positions 121 to 270 in INCENP contains an important motif […], required for binding to HP1. A mutant (SEQ ID NO: 9, INCENP 3A) was obtained by substituting three amino acids in this region with alanine residues and used as a control. A dissociation constant thereof was determined by isothermal titration calorimetry. As an isothermal titration calorimetry apparatus, any device may be used. For example, using MicroCal iTC2000 system (manufactured by GE healthcare biosciences), measurement may be carried out, in accordance with a conventional method.
The above peptides, to which His tag or GST tag was attached, were subjected to isothermal titration calorimetry to determine a dissociation constant. Note that, the dissociation constant was computationally obtained based on average values of 5 experiments.

T2 sequence (P45973 whole entry): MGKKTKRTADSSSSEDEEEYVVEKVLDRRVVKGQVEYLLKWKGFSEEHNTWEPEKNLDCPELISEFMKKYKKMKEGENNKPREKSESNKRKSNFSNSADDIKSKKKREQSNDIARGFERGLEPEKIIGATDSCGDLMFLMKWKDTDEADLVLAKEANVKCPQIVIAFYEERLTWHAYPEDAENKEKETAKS

Molecule: COc1cc2c(Nc3ccc(NC(=O)c4ccccc4)cc3)ncnc2cc1OCCCN1CCOCC1 [ZM447439]
- kinase activities of the fractions obtained by immunoprecipitation with the anti-HP1α-pS92 antibody and the INCENP antibody (Aurora B [1]): inhibited
- phosphorylated HP1α detected by immunostaining (Aurora B [2]): not detected
- Phosphorylation by Aurora B of substrates (H3, Hec1, Dsn1) (Aurora B [3]; FIGS. 4B to 4D legend): suppressed
- effect on phosphorylation of Hec1 and Dsn1 (Aurora B [3]; HeLa cells, low concentration (0.4 μM)): suppressive effect equal to the effect produced by depletion of HP1

Molecule: HP1α: recombinant heterochromatin protein 1 subtype α
- reaction rate of substrate phosphorylation by Aurora B per unit time (Aurora B [4]; enzyme kinetics analysis, FIG. 6G): significantly increases
- activation of Aurora B (Aurora B [4]): highly activate

Molecule: HP1 mutant I165E: HP1 mutant which cannot form a dimer, cannot bind to INCENP
- activation of Aurora B (Aurora B [4]): does not activate

B1: INCENP 3A: mutant (SEQ ID NO: 9) obtained by substituting three amino acids of the P×V×I motif with alanine residues (protein)
chain: LRRVTRAAAAAAAATMALAAPSSPTPESPTMLTKKPEDNHTQCQLVAVAEAGISERQNAEQHVTQLMSTEPLPRTLSPTPASATAPTSQGIPTSDEESTPKKSKARILESITVSSLMATPQDPKGQGVGTGRSASKLRIAQVSPGPRDSP
modifications: HP1 binding site mutant
- binding to HP1 (HP1α): does not bind to HP1

The remaining lines, values ahead:

- activation of Aurora B (Aurora B [4]): highly activate
Molecule: HP1γ: heterochromatin protein 1 subtype γ

- activation of Aurora B (Aurora B [4]): highly activate
Molecule: HP1β: heterochromatin protein 1 subtype β

- Binding (HP1α; binding to wild type HP1α, isothermal titration calorimetry, His tag or GST tag peptides): ◯
B2: INCENP WT: region at positions 121 to 270 in INCENP (SEQ ID NO: 8), with His tag or GST tag (protein, listed as Homo sapiens)
chain: B1 chain with A47P, A49V, A51I
modifications: His tag or GST tag
